Measured values published in the DeepSol protein solubility set.

Test: soluble on expression in E. coli; label from the status in PepcDB or PDB records
With “MRRTLVVPDVLLLGTLLAGLLLLSGCEGDYRPRAVGPIGEITVVMDSSHWTGPSGEALRANVTPWVETLPVSERSFQLRHLELTDERTYERVQDLKNVIIAAPLSDSTNETSFLRRRLSDEAEQAILDGQTAVVPKPNLWRRSQRIYYVAAASPDALAETFQSQGTQIRDTFTEATLQRMDRNMYEDDRRSALEDTLMQRHGFAVNMQSDFQIAVDTTTGSEGFVWLRRLLAQTRREFFVYYVEDVSPDQITPEWIYNTRDSLTRRHLRGNVRGFAKIDYRRPLKTEQRSFLDRYAYDSRGLWYMVAPLGGGNELRPVGGGGPFVNYTFYDQATDRVYMLDGSIFAPDNDKIDLLRQMEVMARTFRTAEGSRSPDASPTAAKLEHHHHHH” the “soluble on expression in E. coli” value was “not soluble”. With “MQLFDLSLEELKKYKPKKTARPDFSDFWKKSLEELRQVEAEPTLESYDYPVKGVKVYRLTYQSFGHSKIEGFYAVPDQTGPHPALVRFHGYNASYDGGIHDIVNWALHGYATFGMLVRGQGGSEDTSVTPGGHALGWMTKGILSKDTYYYRGVYLDAVRALEVIQSFPEVDEHRIGVIGGAQGGALAIAAAALSDIPKVVVADYPYLSNFERAVDVALEQPYLEINSYFRRNSDPKVEEKAFETLSYFDLINLAGWVKQPTLMAIGLIDKITPPSTVFAAYNHLETDKDLKVYRYFGHEFIPAFQTEKLSFLQKHLLLST” the “soluble on expression in E. coli” value was “soluble”. In the case of “MAHHHHHHMYSTTNDKSENEDLNDVIEININNIANKLANILYITNVGMKENCELKNNLHFSKFLNDMRSYCVNLIQSINNLNSNFYNLTCLPVHSIPRNPYTNILDINVITNNISVDDNADKIKEKQTLLQSFHNKYDKNKTTFHQSIKHIETFNDQLFSALNNLDHIKMSIKYQDQESSTYGNVVSERLKNKQKDHEHLELYIARVHYGLF”, the “soluble on expression in E. coli” value is reported as “not soluble”. In the case of “MGSDKIHHHHHHMKKTPKLSVQLWSVKDAINQDFNGTLKTLSNMGFDGVEFAGELGSYANDAKALKLFLDSIDLKASGAHVSFEQLDQDNFQKTVDFYHQLQVDTLIIGLDDRSWHPQGIEEVVKLLNQLDTKLDPYNIKTGFHNHEHEFDNFKGTTYWDYLAMNTKDSVVLQQDVGWTTYAGKDAVEYVYKYPNRSFTTHYRVCIPEGVKGKQPIIGRDTIDWLRLLKANINVGGTKWIVVEQDVYPNGMSSLAAVALSKNGLEQYIDKL”, the “soluble on expression in E. coli” value is reported as “not soluble”. In the case of “MAHHHHHHMHSRTAPPLPPHTFAQVLHDRFVHYNDGKNKQTNIKRRNANNLNSFSYTAARAQGVVPRVDSTLGLLWTWRWAGAYGVACVCVCLCAADKMSAARHSHPPPPSLSRCRFPPPALFIMHRAHTYLLCIAAHLLLSPPPPSSPSRFVFASSSLSCPGCAFSWVTRFVSSMLRRTLCCGMMQLHALPTPNPLCHTFTIPADSFESFVPQGQSCEVAHRGLAWVHPLSQGLFEQYPQELMSVFIAPRHVSISVYTNVDWSKIEWSISSFLGHYLIFTNACISPAKEYTLMEDDLELKDTDTEVLQCIKELLREQVRPMVQRDGGDVKLLNFNEKTGIVSLAMLGACKTCPSSQNTLKDGIERVMKHFVPEVTEVIEDKEHQFYEDYGLLFDSEKALFKEAARLDRERQAKLRHNLTPMVLSYEVLNEPDGD”, the “soluble on expression in E. coli” value is reported as “not soluble”. With “MRGEVKKIIEAIGDIFIGHEDVIRKVLAVALVNGNILFEDYPGLGKTLLAKAFAKILGLKFKRIQFTPDLLPADIIGTKVWKPEKGAFEVVKGPIFTNILLADEINRAPPKTQSALLEAMEERQVTIEGETFKLERPFFIIATQNPLELEGTYPLPEAQLDRFLVRLNIGYPRNEEDELEILKARLRWGKDDPTSDISPIISREDFIRMQEEVERGVIIHDDILRYIVRLVRRIREDERIEAGPSPRGGLALMKLAKANAFIEGRSYVIPDDVKYFAVEALAHRIVLKPEYSLERGIAEEIIREVLEEVPVPKDIRY” the “soluble on expression in E. coli” value was “soluble”. In the case of “MQTLILMAYIKRLVSEGKHASLREAYYANKHTVPGTRENTFEDQSESDPIIEDLERMLGVLREEMHITADRRGYIYGDIVIKDGEDEFNASKLGTGGWAVPGTVEHIQFPEINVDYVLVVETAAMADRLIEEKYPKRENCLIVATQGQASRGVRRLIHRLHYEEGLPIIVFTDGDPYGWYIYSTIKRGSINLAYLSEKLATPDAKFVGMTMDDIKEYNLENVTEKLKGIPPDKKGGPTGDYKRLIEELNYPWFQDKEWQRQLKLALKWGVRIEQQALANKSLEFVAKEYLPEKIREGKLLP”, the “soluble on expression in E. coli” value is reported as “soluble”. For “MNGRSLIFSILFVFSELKCDDTDENDQHGTIYQFQAKNIDGKMVSMEKYRDKVVLFTNVASYCGYTDSNYNAFKELDGIYREKGFRVAAFPCNQFEKQEPETEGKILDFVKSSYTYAPDMYSKIEVNGQNTHPLWKFLKKERGSSLSADIPWNFSKFLVDKNGHVVGRYSHSVNPIDLEEEISRLLNS”, the “soluble on expression in E. coli” value was “not soluble”.
